Reference: patent US20180280504A1, “GLYCAN-INTERACTING COMPOUNDS AND METHODS OF USE” (SIAMAB THERAPEUTICS, INC., priority 2014, published 2018)
Numbering of substitutions follows the chain as printed. Numbers in names are those of the source.

B1: 7G9: anti-STn mouse monoclonal, IgG2b κ, from mouse #4407; VH SEQ ID NO: 12, VL SEQ ID NO: 9 (antibody, V domains shown)
VH: QVQLKESGPGLVAPSQNLSITCTVSGFSLTSYGVNWVRQPPGKGLEWLGVIWGDGSTNYHSALISRLIISKENSKSQVFLKLNSLQTNDTATYYCTKGFVYWGQGTLVTVSA
VL: QIVLTQSPAIMSASPGEKVTMTCSASSSVSYMHWYQQKSGTSPKRWIFDTSKLASGVPARFSGSGSGTSYSLTISSMEAEDAATYYCQQWSSNLLTFGAGTKLELK
B2: 2D4: anti-STn mouse monoclonal, IgG2b κ, from mouse #4407; VH SEQ ID NO: 10, VL SEQ ID NO: 11 (antibody, V domains shown)
VH: B1 VH with K5Q, N17S, T30I, H60Q, E72D, N88D, V100A
VL: B1 VL with Y35F, F48Y
B3: S3F: 3F1 variable domains combined with IgG2a constant domains; heavy chain SEQ ID NO: 63, light chain SEQ ID NO: 64 (antibody)
heavy: QVQLQQSDAELVKPGASVKISCKASGYTFTDHAIHWVKQKPEQGLDWIGYISPGNGDIKYNEKFKDKVTLTADKSSSTACMHLNSLTSEDSAVYFCKRSLLALDYWGQGTTLTVSSAKTTAPSVYPLAPVCGDTTGSSVTLGCLVKGYFPEPVTLTWNSGSLSSGVHTFPAVLQSDLYTLSSSVTVTSSTWPSQSITCNVAHPASSTKVDKKIEPRGPTIKPCPPCKCPAPNLLGGPSVFIFPPKIKDVLMISLSPIVTCVVVDVSEDDPDVQISWFVNNVEVHTAQTQTHREDYNSTLRVVSALPIQHQDWMSGKEFKCKVNNKDLPAPIERTISKPKGSVRAPQVYVLPPPEEEMTKKQVTLTCMVTDFMPEDIYVEWTNNGKTELNYKNTEPVLDSDGSYFMYSKLRVEKKNWVERNSYSCSVVHEGLHNHHTTKSFSRTPGK
light: DIVMTQSHKFMSTSVGDRVSITCKASQDVGTNIAWYQQKPGRSPKVLIYSASTRHTGVPDRFTGSGSGTDFTLTISNVQSEDLTDYFCQQYSSFPLTFGVGTKLELKRADAAPTVSIFPPSSEQLTSGGASVVCFLNNFYPKDINVKWKIDGSERQNGVLNSWTDQDSKDSTYSMSSTLTLTKDEYERHNSYTCEATHKTSTSPIVKSFNRNEC
B4: 10A5: anti-STn mouse monoclonal, IgG2c κ, from mouse #4406; VH SEQ ID NO: 6, VL SEQ ID NO: 7 (antibody, V domains shown)
VH: B1 VH with N17S, N35S, A62S, I68S, E72D, N88D, T96A, K97R, G98A
VL: QIVLTQSPAIMSASPGEKVTMTCSASSSVSYIHWYQQKSGTSPKRWIYDTSKLASGVPARFSGSGSGTSYSLTISSMEAEDAATYYCQQWSSNPPMLTFGAGTKLELK
B5: 8C11: anti-STn mouse monoclonal, IgG2b κ, from mouse #4407; VH SEQ ID NO: 8, VL SEQ ID NO: 9 (antibody, V domains shown)
VH: B1 VH with N17S, N35S, E72D, N88D, V100T
VL: B1 VL

System: OV-90 cells
Test: Cell viability assay with secondary antibody-drug conjugate (2° ADC), OV-90
Format: cell-based
Conditions: with 2° ADC Fab αMFc-CL-MMAF
Experimental: (§1) Cell viability assays are performed to screen anti-STn antibodies of the present invention in the presence and absence of secondary antibody-drug conjugates (2° ADCs). The purpose of the screen is to identify the ability of each anti-STn antibody to inhibit cell growth. Antibodies with potent cell growth inhibition are used to design direct antibody-drug conjugates (ADCs). Using such secondary antibody-drug conjugates (2° ADCs) in cell-based cytotoxic assays can quickly pre-screen many ADC candidates against tumor cells. Based on the assay, a naked antibody candidate is directly added to cells in the presence of a 2° ADC. Internalization of the mAb/2° ADC complex into cells that express a high density of the targeted antigen can achieve a dose-dependent drug release within the cells, causing a cytotoxic effect to kill the cells (e.g., tumor cells), while cells expressing a low density of the targeted antigen are not affected (e.g., normal cells).
(§2) To perform cell viability assays, cell lines described in the present application (MDA-MB-231 parental, MDA-MB-231-STn+, and OV-90) are prepared and cultured for the assays. The cell culture is optimized for cell density by plating different densities of cells (e.g., 2,000, 4,000 and 7,500 per well) on a 96-well plate and observing the cell growth for 96 hours. The plating condition in which cells reach around 90% confluence at the end of the 96 hours is identified and the optimal cell number is then used in the final viability assay.
(§3) Duplicate or triplicate cell plates for each cell line are used for testing each antibody candidate.
For cell viability assays, data points are collected for each antibody candidate with duplicates for each data point. […]
(§4) Cell viabilities are measured by Cell-Titer Glo luminescence based assays.
Three anti-STn monoclonal antibodies (anti-STn antibodies S3F, 7G9 and 2D4) and an anti-EGFR monoclonal antibody LA22 were tested for internalization. […] Cell viability was then measured using CellTitreGlo Luminescent Cell Viability Assay (Promega, Madison, Wis.).

B1 was tested, and the “activity in OV-90 cells” value was “lack of effect”.
For B2, the “activity in OV-90 cells” value was “lack of effect”.
B3 was tested, and the “activity in OV-90 cells” value was “modest activity”.

System: MDA-MB-231-STn+ cells
Test: Cell viability assay with secondary antibody-drug conjugate (2° ADC), STn+ cells
Format: cell-based, human
Conditions: MDA-MB-231-STn+ cells; unit inferred; b641; read-out: IC50 in the presence of Fab αMFc-CL-MMAF
Experimental: as §1, §2, §3
For cell viability assays, data points are collected for each antibody candidate with duplicates for each data point. Each antibody candidate is diluted in serial concentrations from 0.3 pM to 20 nM.
Alternatively, data points are collected for each antibody candidate with triplicates for each data point. Each antibody candidate is diluted in serial concentrations from 1 pM to 20 nM.
as §4
Three anti-STn monoclonal antibodies (anti-STn antibodies S3F, 7G9 and 2D4) and an anti-EGFR monoclonal antibody LA22 were tested for internalization. Six plates of cell culture, two per cell line (MDA-MB-231 parental, MDA-MB-231-STn+, and OV-90), were used to assay the antibody candidates. Each plate can be used to assay the four antibody candidates simultaneously. A secondary anti-IgG antibody conjugated to MMAF (monomethyl auristatin phenylalanine), a non-permeable Aurastatin analog, was used as the 2° ADC. Cell viability was then measured using CellTitreGlo Luminescent Cell Viability Assay (Promega, Madison, Wis.).

For B3, the IC50 was 0.124 nM.

Same assay, conditions: MDA-MB-231-STn+ cells; with 2° ADC Fab αMFc-CL-MMAF; CellTitreGlo; read-out: IC50 (nM), secondary internalization assay

In order of rising IC50:
1. B2  0.056 nM
2. B3  0.058 nM
3. B1  0.181 nM

Same assay, conditions: with 2° ADC Fab αMFc-CL-MMAF

For B1, the “activity in MDA-MB-231-STn+ cells” value was “demonstrate activity”.
In the case of B2, the “activity in MDA-MB-231-STn+ cells” value is reported as “demonstrate activity”.
In the case of B3, the “activity in MDA-MB-231-STn+ cells” value is reported as “demonstrate activity”.

System: MDA-MD-231 STn cells
Test: Antibody internalization by fluorescence microscopy cell counts, STn+ cells
Format: cell-based, human
Conditions: 10 μg/ml antibody, 15 min at 37° C.
Experimental: 6-well culture dishes were prepared with collagen-coated coverslips in the center of 4 wells of each dish. Wells were seeded with either 10^5 cells/well of MDA-MD-231 cells or with 10^6 cells/well of MDA-MD-231 STn cells (expressing STn) and cultured for 24 hours.
10 μg/ml antibody solutions were prepared in cell culture media. A separate solution was prepared for each of LA22 antibody (EMD Millipore, Burlington, Mass.) as a positive control for cell surface binding, S3F antibody (internal reagent) as a positive control for STn binding, 8C11, 2D4, 7G9, 10A5 and GB26.16 (QED Bioscience, San Diego, Calif.) as a negative control. Media were removed from wells and 100 μl of each antibody solution was added to separate coverslips. Coverslips were covered with parafilm and incubated for 30 minutes at 4° C. to allow antibody binding. Antibody solutions were removed by washing and fresh media was added to each well. Cells were incubated at 37° C. for 15, 30, 60 or 240 min to allow for antibody internalization.
After incubation, cells were prepared for microscopy. Cells were washed with PBS and fixed with paraformaldehyde fixation buffer (PFA) containing 3% paraformaldehyde and 2% sucrose in PBS for 15 minutes at room temperature. Cells were rinsed again in PBS and treated with blocking buffer made up of PBS with 1% bovine serum albumin (BSA) or with permeabilization buffer made up of blocking buffer with 0.1% TX-100. Cells were incubated in for 30 min at room temperature, rinsed in PBS and treated with secondary antibody (ALEXA FLUOR® 488-labeled goat-anti-mouse IgG) for 2 hours at room temperature. Cells were rinsed again in PBS and treated with DAPI nuclear stain for 5 min at room temperature in the dark. Cells were rinsed again in PBS and mounted for fluorescence microscopy.

In order of falling “Net cell counts of cells showing positive internalization” value (“Net cell counts” below):
1. B2  1340
2. B5  934
3. B1  458
4. B3  426
5. B4  267

Same assay, conditions: 10 μg/ml antibody, 30 min at 37° C.

In order of rising “Net cell counts” value:
1. B1  154
2. B5  297
3. B4  346
4. B3  410
5. B2  413

Same assay, conditions: 10 μg/ml antibody, 60 min at 37° C.

In order of falling “Net cell counts” value:
1. B2  533
2. B3  350
3. B1  126
4. B5  122
5. B4  75

Same assay, conditions: 10 μg/ml antibody, 4 hr at 37° C.

In order of rising “Net cell counts” value:
1. B5  49
2. B1  61
3. B4  93
4. B3  259
5. B2  325

Same assay, conditions: 10 μg/ml antibody, 4 hr, no perm

In order of falling “Net cell counts” value:
1. B2  536
2. B3  276
3. B5  160
4. B1  145
5. B4  97

Same assay, conditions: microscopy

For B5, the “level of internalization (comparison of antibodies)” value was “greatest levels of internalization”.
With B2 the “level of internalization (comparison of antibodies)” value was “greatest levels of internalization”.
